The record followed here is US20240409629A1.

For this assay, the target named is human CLDN18.1 (human) (UniProt P56856). The assay is described as follows: FACS, U2OS-CLDN18.1 cells, antibody at 200 nM.

B1: IgG1 isotype control antibody (antibody, V domains shown)
VH: EVQLEQSGAELMKPGASVKISCKATGYTFTTYWIEWIKQRPGHSLEWIGEILPGSDSTYYNEKVKGKVTFTADASSNTAYMQLSSLTSEDSAVYYCARGDGFYVYWGQGTTLTVSS
VL: DIELTQSPATLSVTPGDSVSLSCRASQSISNNLHWYQQKSHESPRLLIKYTSQSMSGIPSRFSGSGSGTDFTLSINSVETEDFGVYFCQQSGSWPRTFGGGTKLDIKR
B1 yielded an MFI of 6040.
